Experimental data reported in IntAct's records for PubMed 21240188.

B1: Fanconi anemia group J protein (Homo sapiens), Q9BX63 (parent)
chain: MSSMWSEYTIGGVKIYFPYKAYPSQLAMMNSILRGLNSKQHCLLESPTGSGKSLALLCSALAWQQSLSGKPADEGVSEKAEVQLSCCCACHSKDFTNNDMNQGTSRHFNYPSTPPSERNGTSSTCQDSPEKTTLAAKLSAKKQASIYRDENDDFQVEKKRIRPLETTQQIRKRHCFGTEVHNLDAKVDSGKTVKLNSPLEKINSFSPQKPPGHCSRCCCSTKQGNSQESSNTIKKDHTGKSKIPKIYFGTRTHKQIAQITRELRRTAYSGVPMTILSSRDHTCVHPEVVGNFNRNEKCMELLDGKNGKSCYFYHGVHKISDQHTLQTFQGMCKAWDIEELVSLGKKLKACPYYTARELIQDADIIFCPYNYLLDAQIRESMDLNLKEQVVILDEAHNIEDCARESASYSVTEVQLRFARDELDSMVNNNIRKKDHEPLRAVCCSLINWLEANAEYLVERDYESACKIWSGNEMLLTLHKMGITTATFPILQGHFSAVLQKEEKISPIYGKEEAREVPVISASTQIMLKGLFMVLDYLFRQNSRFADDYKIAIQQTYSWTNQIDISDKNGLLVLPKNKKRSRQKTAVHVLNFWCLNPAVAFSDINGKVQTIVLTSGTLSPMKSFSSELGVTFTIQLEANHIIKNSQVWVGTIGSGPKGRNLCATFQNTETFEFQDEVGALLLSVCQTVSQGILCFLPSYKLLEKLKERWLSTGLWHNLELVKTVIVEPQGGEKTNFDELLQVYYDAIKYKGEKDGALLVAVCRGKVSEGLDFSDDNARAVITIGIPFPNVKDLQVELKRQYNDHHSKLRGLLPGRQWYEIQAYRALNQALGRCIRHRNDWGALILVDDRFRNNPSRYISGLSKWVRQQIQHHSTFESALESLAEFSKKHQKVLNVSIKDRTNIQDNESTLEVTSLKYSTSPYLLEAASHLSPENFVEDEAKICVQELQCPKIITKNSPLPSSIISRKEKNDPVFLEEAGKAEKIVISRSTSPTFNKQTKRVSWSSFNSLGQYFTGKIPKATPELGSSENSASSPPRFKTEKMESKTVLPFTDKCESSNLTVNTSFGSCPQSETIISSLKIDATLTRKNHSEHPLCSEEALDPDIELSLVSEEDKQSTSNRDFETEAEDESIYFTPELYDPEDTDEEKNDLAETDRGNRLANNSDCILAKDLFEIRTIKEVDSAREVKAEDCIDTKLNGILHIEESKIDDIDGNVKTTWINELELGKTHEIEIKNFKPSPSKNKGMFPGFK

Variants of: B1
Conditions: with brca1_human BRCA1, P38398
brca1_human BRCA1, P38398, sequence (P38398 whole entry, looked up): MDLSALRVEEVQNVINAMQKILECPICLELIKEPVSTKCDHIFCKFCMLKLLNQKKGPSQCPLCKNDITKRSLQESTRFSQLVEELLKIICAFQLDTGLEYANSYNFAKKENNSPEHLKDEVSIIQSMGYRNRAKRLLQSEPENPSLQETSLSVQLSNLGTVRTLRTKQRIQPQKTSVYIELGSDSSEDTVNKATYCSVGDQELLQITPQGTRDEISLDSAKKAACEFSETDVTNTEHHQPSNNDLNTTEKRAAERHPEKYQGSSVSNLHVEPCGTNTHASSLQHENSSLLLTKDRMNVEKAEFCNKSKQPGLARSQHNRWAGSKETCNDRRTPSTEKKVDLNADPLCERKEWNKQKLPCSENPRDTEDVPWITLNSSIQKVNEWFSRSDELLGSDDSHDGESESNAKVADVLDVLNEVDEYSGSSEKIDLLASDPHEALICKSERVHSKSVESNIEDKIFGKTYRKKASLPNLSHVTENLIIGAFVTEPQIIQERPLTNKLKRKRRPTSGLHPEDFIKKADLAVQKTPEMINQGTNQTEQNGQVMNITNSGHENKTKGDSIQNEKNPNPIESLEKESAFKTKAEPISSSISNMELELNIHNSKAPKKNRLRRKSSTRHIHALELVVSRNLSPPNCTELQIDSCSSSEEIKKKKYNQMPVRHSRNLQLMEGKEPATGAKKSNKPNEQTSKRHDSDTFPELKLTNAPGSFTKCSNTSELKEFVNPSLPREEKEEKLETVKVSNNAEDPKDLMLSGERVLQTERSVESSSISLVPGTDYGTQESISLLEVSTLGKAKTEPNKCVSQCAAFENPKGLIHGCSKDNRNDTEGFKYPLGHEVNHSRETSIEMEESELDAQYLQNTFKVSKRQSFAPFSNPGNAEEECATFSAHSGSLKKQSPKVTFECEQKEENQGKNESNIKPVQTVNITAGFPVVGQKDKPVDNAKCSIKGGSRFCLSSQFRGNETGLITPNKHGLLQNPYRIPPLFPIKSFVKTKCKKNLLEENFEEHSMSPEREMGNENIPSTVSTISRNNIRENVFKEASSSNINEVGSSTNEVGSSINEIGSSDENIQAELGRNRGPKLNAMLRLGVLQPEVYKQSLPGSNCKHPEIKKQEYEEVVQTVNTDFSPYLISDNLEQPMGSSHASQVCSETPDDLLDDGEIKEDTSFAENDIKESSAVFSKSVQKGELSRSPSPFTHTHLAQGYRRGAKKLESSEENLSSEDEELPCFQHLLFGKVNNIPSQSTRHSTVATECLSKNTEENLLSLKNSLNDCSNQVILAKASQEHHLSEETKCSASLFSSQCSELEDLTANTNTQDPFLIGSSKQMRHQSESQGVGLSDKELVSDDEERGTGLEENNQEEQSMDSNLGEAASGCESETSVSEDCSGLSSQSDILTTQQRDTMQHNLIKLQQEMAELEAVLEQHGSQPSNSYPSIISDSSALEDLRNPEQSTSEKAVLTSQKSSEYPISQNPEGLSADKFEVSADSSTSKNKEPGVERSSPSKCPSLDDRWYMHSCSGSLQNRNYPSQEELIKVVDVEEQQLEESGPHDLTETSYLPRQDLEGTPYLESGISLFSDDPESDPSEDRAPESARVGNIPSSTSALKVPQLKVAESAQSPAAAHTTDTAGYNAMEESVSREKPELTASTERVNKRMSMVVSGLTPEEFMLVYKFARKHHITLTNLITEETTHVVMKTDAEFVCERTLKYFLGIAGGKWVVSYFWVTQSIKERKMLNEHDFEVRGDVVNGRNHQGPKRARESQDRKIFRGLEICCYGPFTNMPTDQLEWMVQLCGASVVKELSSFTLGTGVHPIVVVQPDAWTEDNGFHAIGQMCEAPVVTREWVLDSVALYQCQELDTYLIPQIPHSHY

| Variant | effect of a mutation on the interaction |
| --- | --- |
| S990A | disrupting interaction |
